Test results as given in patent publication US20250268938A1, “SMALL MOLECULE-REGULATED CELL SIGNALING EXPRESSION SYSTEM” (Outpace Bio, Inc., priority 2021, published 2025).

System: Jurkat cells
Assay: Kill switch percent killing in Jurkat cells (flow cytometry)
Type: cell-based
Conditions: for percent killing, miniaturized DNCR2 designs fused to caspase-9 with homo-oligomerized NS3a scaffolds: co-expressed with CAR-NS3a, CAR-NS3a-NS3a or dimer-NS3a; for percent killing in the absence of a scaffolded NS3a: danoprevir or grazoprevir treatment, 500 nM
Procedure: Kill switch-positive cells (le5) were incubated for 24-48 hours with inducer drug before staining and analysis for death. Conditions were normalized to contain about 50% transduction positive (+) cells by adding untransduced Jurkat or primary T cells in order to get accurate statistics on death.
Flow cytometry was performed on a Ze5 cytometer (Biorad). To determine expression of markers, between 1×10^5-2×10^5 total cells were transferred to a U-bottom 96 well culture dish (Corning). Cells were washed twice with Cell Staining Buffer (BioLegend), then stained with Zombie Violet (1:1000, BioLegend) and ROR1-FC for ROR1-specific CAR constructs (20 min at room temperature). Cells were washed twice in Cell Staining Buffer, then stained with Annexin V-PE (BD) in 1× Annexin V Binding Buffer (BD) for 15 min at room temperature. After staining, cells were washed once with Annexin V Binding Buffer, resuspended in AnneinV Binding Buffer and immediately analyzed.
Flow cytometry data was analyzed using FlowJo 10 (Tree Star). Percent killing was calculated by gating on live cells, then calculating 100*((percent GFP positive DMSO condition)−(percent GFP positive drug condition))/(percent GFP positive DMSO condition).
We first tested for drug-induced death of Jurkat cells by fusing NS3a and DNCR2 separately to the catalytic domain of caspase-9 (NCDC). The small molecule inducible homodimer FKBP-F36V (iCasp9), which is dimerized by AP1903 (rimiducid) and the inducible heterodimer FKBP/rapamycin/FRB dimer (rapaCasp9) were used as controls. Briefly, Jurkat cells expressing NCDC, iCasp9, or rapaCasp9 were exposed to danoprevir, rimiducid or rapamycin, respectively, for 24 hours and analyzed by flow cytometry with gating set to measure killing in the top about 10% of cells expressing the highest amount of the GFP kill switch transduction marker.
To evaluate the kill switch designs of FIG. 8A, constructs were expressed in Jurkat cells, treated with 500 nM danoprevir (DNCR2-casp-9) or 500 nM grazoprevir (GNCR1-casp-9) and cell death measured by percent killing as described herein above.
The miniaturized versions of DNCR2, D1 and D9, were fused to caspase-9 and co-expressed in Jurkat cells with homo-oligomerized NS3a scaffolds. We also evaluated a CAR construct that included an additional copy of NS3a (CAR-2×NS3a). The original DNCR2-casp-9 was used as a control. Jurkat cells expressing different DNCR2 variants fused to caspase-9 along with CAR-NS3a, CAR-NS3a-NS3a, or dimer-NS3a were treated with 500 nM danoprevir and cell death was measured by percent killing as described herein above.
We explored the ability of other human killing domains to induce cell death in Jurkat and primary human T cells. We fused FKBP-F36V to a panel of killing domains that included caspase-9 D330A, caspase-9, caspase-1, caspase-4, and the necroptosis-inducing protein RIPK3. Briefly, Jurkat and primary human CD4+/CD8+ T cells expressing FKBP(F36V)-fused killing domains were treated with 10 nM rimiducid and cell death was measured by percent killing as described herein above.

B1: hexamer-NS3a: NS3a fused to C-terminus of designed homo-oligomeric helical bundle, hexamer (SEQ ID NO: 43) (protein)
chain: MTEDEIRKLRKLLEEAEKKLKKLEDKTRRSEEISKTDDDPKAQSLQLIAESLMLIAESLLIIAISLLLSSRNGSASGSASMKKKGSVVIVGRINLSGDTAYSQQTRGLEGCQETSQTGRDKNQVEGEVQVVSTATQSFLATSINGVLWTVYHGAGTRTIASPKGPVTQMYTNVDKDLVGWQAPQGSRSLTPCTCGSSDLYLVTRHADVIPVRRRGDSRGSLLSPRPISYLKGSAGGPLLCPAGHAVGIFRAAVSTRGVAKAVDFIPVESLETTMRSP
500 nM grazoprevir
  percent killing, NS3a scaffold with GNCR1-casp-9: modest death

B2: D9: minimized version of DNCR2 fused to caspase-9 (protein)
chain: MELEEVLKDLEEALERLRNEELRRLIEEIAELLRRRDDHSIIYMIEALIFVIEAVERTGDERIEKLLEELIKRIRNGDDDSAIMRIVLAVYLIEENLRESGSASGSGGFGDVGALESLRGNADLAYILSMEPCGHCLIINNVNFCRESGLRTRTGSNIDCEKLRRRFSSLHFMVEVKGDLTAKKMVLALLELAQQDHGALDCCVVVILSHGCQASHLQFPGAVYGTDGCPVSVEKIVNIFNGTSCPSLGGKPKLFFIQACGGEQKDHGFEVASTSPEDESPGSNPEPDATPFQEGLRTFDQLAAISSLPTPSDIFVSYSTFPGFVSWRDPKSGSWYVETLDDIFEQWAHSEDLQSLLLRVANAVSVKGIYKQMPGCFNFLRKKLFFKTS
500 nM danoprevir
  percent killing, miniaturized DNCR2 designs fused to caspase-9 with homo-oligomerized NS3a scaffolds: comparable Jurkat death as the original DNCR2-casp-9

B3: GNCR1-casp-9: caspase-9 fused to GNCR1 (protein)
chain: MDIEKLCKKAEEEAKEAQEKADELRQRHPDSQAAEDAEDLANLAVAAVLTACLLAQEHPNADIAKLCIKAASEAAEAASKAAELAQRHPDSQAARDAIKLASQAARAVILAIMLAAENPNADIAKLCIKAASEAAEAASKAAELAQRHPDSQAARDAIKLASQAAEAVERAIWLAAENPNADIAKKCIKAASEAAEEASKAAEEAQRHPDSQKARDEIKEASQKAEEVKERCKSGSASGSGGFGDVGALESLRGNADLAYILSMEPCGHCLIINNVNFCRESGLRTRTGSNIDCEKLRRRFSSLHFMVEVKGDLTAKKMVLALLELAQQDHGALDCCVVVILSHGCQASHLQFPGAVYGTDGCPVSVEKIVNIFNGTSCPSLGGKPKLFFIQACGGEQKDHGFEVASTSPEDESPGSNPEPDATPFQEGLRTFDQLDAISSLPTPSDIFVSYSTFPGFVSWRDPKSGSWYVETLDDIFEQWAHSEDLQSLLLRVANAVSVKGIYKQMPGCFNFLRKKLFFKTS
  percent killing in the absence of a scaffolded NS3a: did not induce Jurkat death

B4: CAR-2×NS3a: CAR construct that included an additional copy of NS3a (protein)
chain: CPPCPMFWVLVVVGGVLACYSLLVTVAFIIFWVKRGRKKLLYIFKQPFMRPVQTTQEEDGCSCRFPEEEEGGCELASGSASGSASMKKKGSVVIVGRINLSGDTAYSQQTRGLEGCQETSQTGRDKNQVEGEVQVVSTATQSFLATSINGVLWTVYHGAGTRTIASPKGPVTQMYTNVDKDLVGWQAPQGSRSLTPCTCGSSDLYLVTRHADVIPVRRRGDSRGSLLSPRPISYLKGSAGGPLLCPAGHAVGIFRAAVSTRGVAKAVDFIPVESLETTMRSPGSSGSSGSSGGKKKGSVVIVGRINLSGDTAYSQQTRGLEGCQETSQTGRDKNQVEGEVQVVSTATQSFLATSINGVLWTVYHGAGTRTIASPKGPVTQMYTNVDKDLVGWQAPQGSRSLTPCTCGSSDLYLVTRHADVIPVRRRGDSRGSLLSPRPISYLKGSAGGPLLCPAGHAVGIFRAAVSTRGVAKAVDFIPVESLETTMRSP
500 nM danoprevir
  percent killing, miniaturized DNCR2 designs fused to caspase-9 with homo-oligomerized NS3a scaffolds: increased killing further

B5: dimer-NS3a: NS3a fused to C-terminus of designed homo-oligomeric helical bundle, dimer (SEQ ID NO: 42) (protein)
chain: MTRTEIIRELERSLREQEELAKRLKELLRELERLQREGSSDEDVRELLREIKELVEEIEKLAREQKYLVEELKRQDGSASGSASMKKKGSVVIVGRINLSGDTAYSQQTRGLEGCQETSQTGRDKNQVEGEVQVVSTATQSFLATSINGVLWTVYHGAGTRTIASPKGPVTQMYTNVDKDLVGWQAPQGSRSLTPCTCGSSDLYLVTRHADVIPVRRRGDSRGSLLSPRPISYLKGSAGGPLLCPAGHAVGIFRAAVSTRGVAKAVDFIPVESLETTMRSP
500 nM danoprevir
  percent killing, NS3a scaffold with DNCR2-casp-9: comparable killing to iCasp9

B6: D1: minimized version of DNCR2 fused to caspase-9 (protein)
chain: MDDNEAEKLIREAEEAAKDAEEAAERTGDPEVRELARELVRLAKEAAEEVQRNPSSSDVNEALHSIVYAIEAAIFALEAAERTGDPEVRELARELVRLAVEAAEEVQRNPSSRNVEHALMRIVLAIYLAEENLRESGSASGSGGFGDVGALESLRGNADLAYILSMEPCGHCLIINNVNFCRESGLRTRTGSNIDCEKLRRRFSSLHFMVEVKGDLTAKKMVLALLELAQQDHGALDCCVVVILSHGCQASHLQFPGAVYGTDGCPVSVEKIVNIFNGTSCPSLGGKPKLFFIQACGGEQKDHGFEVASTSPEDESPGSNPEPDATPFQEGLRTFDQLAAISSLPTPSDIFVSYSTFPGFVSWRDPKSGSWYVETLDDIFEQWAHSEDLQSLLLRVANAVSVKGIYKQMPGCFNFLRKKLFFKTS
500 nM danoprevir
  percent killing, miniaturized DNCR2 designs fused to caspase-9 with homo-oligomerized NS3a scaffolds: comparable Jurkat death as the original DNCR2-casp-9

B7: DNCR2-casp-9: caspase-9 fused to DNCR2 (protein)
chain: MSSDEEEARELIERAKEAAERAQEAAERTGDPRVRELARELKRLAQEAAEEVKRDPSSSDVNEALKLIVEAIEAAVDALEAAERTGDPEVRELARELVRLAVEAAEEVQRNPSSSDVNEALHSIVYAIEAAIFALEAAERTGDPEVRELARELVRLAVEAAEEVQRNPSSRNVEHALMRIVLAIYLAEENLREAEESGDPEKREKARERVREAVERAEEVQRDPSGWLNHSGSASGSGGFGDVGALESLRGNADLAYILSMEPCGHCLIINNVNFCRESGLRTRTGSNIDCEKLRRRFSSLHFMVEVKGDLTAKKMVLALLELAQQDHGALDCCVVVILSHGCQASHLQFPGAVYGTDGCPVSVEKIVNIFNGTSCPSLGGKPKLFFIQACGGEQKDHGFEVASTSPEDESPGSNPEPDATPFQEGLRTFDQLAAISSLPTPSDIFVSYSTFPGFVSWRDPKSGSWYVETLDDIFEQWAHSEDLQSLLLRVANAVSVKGIYKQMPGCFNFLRKKLFFKTSGSGATNFSLLKQAGDVEENPG
  percent killing in the absence of a scaffolded NS3a: did not induce Jurkat death
